Experiments:
CENP-S-EGFP (human) = CENP-S-EGFP (human) (UniProt Q8N2Z9); assay: FRET or BRET; acceptor photobleaching FRET at centromeres in living cells; EGFP donor, mCherry acceptor bleached in a 4-10 µm^2 region; E_FRET against EVAR of an unbleached region, Mann-Whitney rank-sum test
EGFP-CENP-S (human) = EGFP-CENP-S (human) (UniProt Q8N2Z9); assay: as above

E FRET (CENP-S-EGFP (human)): 4.15
ΔE (E FRET – EVAR) (CENP-S-EGFP (human)): 4.5
E FRET (EGFP-CENP-S (human)): 3
ΔE (E FRET – EVAR) (EGFP-CENP-S (human)): 4.5
Substance: CENP-T-mCherry (from UniProt Q96BT3 1-561) (natural protein)

— article PMC3938055
